Assay results published in patent US12576138B2, “Compounds and methods for the immobilization of myostatin-inhibitors on the extracellular matrix by transglutaminase” (JULIUS-MAXIMILIANS-UNIVERSITÄT WÜRZBURG, priority 2018, dated 2026).
Blank lines part the entries; values can stand above or below the substance they belong to.

How the values were obtained:
[1] = target: glutamine substrate derived from α-2 plasmin inhibitor (Homo sapiens, UniProt P08697); assay: Transglutaminase coupling of the isolated IGF-I D chain to a glutamine substrate; format: biochemical
Procedure: Starting off by examination of the specificity and efficacy of the IGF-I D chain, the isolated sequence (PLKPAKSA) was coupled to a glutamine substrate derived from α-2 plasmin inhibitor, achieving >90% conversion within less than 10 minutes.

myostatin [2] = target: T1, myostatin (Homo sapiens, UniProt O14793); assay: Bioactivity of released MI: myoblast proliferation in presence of myostatin; format: cell-based; conditions: after release from ECM triggered by MMPs
T1 sequence (O14793 267-375): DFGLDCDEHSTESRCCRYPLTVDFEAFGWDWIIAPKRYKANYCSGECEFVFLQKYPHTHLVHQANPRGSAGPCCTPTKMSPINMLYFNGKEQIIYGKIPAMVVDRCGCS
From the text: If a flaring inflammation in the wounded tissue occurs, accompanied by invasion of macrophages and release of MMPs, the inter-positioned PCL is cleaved, releasing the MI and instantly inhibiting the flaring inflammation and preventing apoptosis of surrounding cartilage and muscle cells.
FIG. 5: (A) Release kinetics of MI modified with a PCL—responding to elevated MMP levels—and the D chain for immobilization on ECM (“MI1”) in comparison to MI modified with the D chain at the C-terminus for direct immobilization on ECM (“MI2”). The MI was labelled with a fluorescent dye before immobilization on the ECM and the release of MI exposed to MMP-1, -8, -9 and -13 for different periods of time was analyzed by HPLC with fluorescence detection. (B) Bioactivity of released MI determined by myoblast proliferation in presence of myostatin and MI after release from ECM triggered by MMPs.

myostatin [3] = target: T1, myostatin; assay: Capture of myostatin by ECM-immobilized MI, measured by ELISA; format: binding
From the text: (§1) MI-D chains were immobilized on ECM with high efficacy (FIG. 4A) and the co-localization with fibronectin confirmed using confocal laser scanning microscopy (FIG. 4B). Bioactivity of immobilized MI was confirmed by capturing myostatin using ELISA and consequently the restoration of mouse myoblast cells to differentiate in presence of myostatin (FIG. 4C, D).
(§2) FIG. 4: Immobilization of the MI-D chain on decellularized ECM. (A) Coupling efficacy in presence and absence of TG. (B) Confocal Laser Scanning Microscopy images of MI labeled with Atto594-maleimide on ECM in presence (panels A) and absence (panels B) of FXIIIa. […] (C) Amount of free myostatin after exposure to ECM with immobilized MI under different conditions measured by ELISA. (D) Bioactivity of MI immobilized on ECM determined by differentiation of myoblasts in presence of myostatin-containing medium and MI bound on ECM in presence or absence of TG.

mouse myoblast cells = assay: Differentiation of myoblasts in presence of myostatin and MI bound on ECM; format: cell-based; conditions: MI immobilized on ECM
From the text: as §1, §2

fibronectin = target: T2, fibronectin (Mus musculus, UniProt P11276); assay: FXIIIa-mediated immobilization of MI-D chain on decellularized cell-derived ECM; format: biochemical
T2 construct: The ECM was produced by NIH3T3 fibroblasts and on day 6 decellularized; endogenous in cells; host or cells: NIH3T3 fibroblasts (decellularized ECM)
From the text: As proof of concept, the MI with TG tag (“MI-D chain”) was immobilized onto cell derived, isolated extracellular matrix (ECM). The ECM was produced by NIH3T3 fibroblasts and on day 6 decellularized and washed to remove cell debris and adsorbed proteins.
as §1, §2

T2 sequence (P11276 33-2477): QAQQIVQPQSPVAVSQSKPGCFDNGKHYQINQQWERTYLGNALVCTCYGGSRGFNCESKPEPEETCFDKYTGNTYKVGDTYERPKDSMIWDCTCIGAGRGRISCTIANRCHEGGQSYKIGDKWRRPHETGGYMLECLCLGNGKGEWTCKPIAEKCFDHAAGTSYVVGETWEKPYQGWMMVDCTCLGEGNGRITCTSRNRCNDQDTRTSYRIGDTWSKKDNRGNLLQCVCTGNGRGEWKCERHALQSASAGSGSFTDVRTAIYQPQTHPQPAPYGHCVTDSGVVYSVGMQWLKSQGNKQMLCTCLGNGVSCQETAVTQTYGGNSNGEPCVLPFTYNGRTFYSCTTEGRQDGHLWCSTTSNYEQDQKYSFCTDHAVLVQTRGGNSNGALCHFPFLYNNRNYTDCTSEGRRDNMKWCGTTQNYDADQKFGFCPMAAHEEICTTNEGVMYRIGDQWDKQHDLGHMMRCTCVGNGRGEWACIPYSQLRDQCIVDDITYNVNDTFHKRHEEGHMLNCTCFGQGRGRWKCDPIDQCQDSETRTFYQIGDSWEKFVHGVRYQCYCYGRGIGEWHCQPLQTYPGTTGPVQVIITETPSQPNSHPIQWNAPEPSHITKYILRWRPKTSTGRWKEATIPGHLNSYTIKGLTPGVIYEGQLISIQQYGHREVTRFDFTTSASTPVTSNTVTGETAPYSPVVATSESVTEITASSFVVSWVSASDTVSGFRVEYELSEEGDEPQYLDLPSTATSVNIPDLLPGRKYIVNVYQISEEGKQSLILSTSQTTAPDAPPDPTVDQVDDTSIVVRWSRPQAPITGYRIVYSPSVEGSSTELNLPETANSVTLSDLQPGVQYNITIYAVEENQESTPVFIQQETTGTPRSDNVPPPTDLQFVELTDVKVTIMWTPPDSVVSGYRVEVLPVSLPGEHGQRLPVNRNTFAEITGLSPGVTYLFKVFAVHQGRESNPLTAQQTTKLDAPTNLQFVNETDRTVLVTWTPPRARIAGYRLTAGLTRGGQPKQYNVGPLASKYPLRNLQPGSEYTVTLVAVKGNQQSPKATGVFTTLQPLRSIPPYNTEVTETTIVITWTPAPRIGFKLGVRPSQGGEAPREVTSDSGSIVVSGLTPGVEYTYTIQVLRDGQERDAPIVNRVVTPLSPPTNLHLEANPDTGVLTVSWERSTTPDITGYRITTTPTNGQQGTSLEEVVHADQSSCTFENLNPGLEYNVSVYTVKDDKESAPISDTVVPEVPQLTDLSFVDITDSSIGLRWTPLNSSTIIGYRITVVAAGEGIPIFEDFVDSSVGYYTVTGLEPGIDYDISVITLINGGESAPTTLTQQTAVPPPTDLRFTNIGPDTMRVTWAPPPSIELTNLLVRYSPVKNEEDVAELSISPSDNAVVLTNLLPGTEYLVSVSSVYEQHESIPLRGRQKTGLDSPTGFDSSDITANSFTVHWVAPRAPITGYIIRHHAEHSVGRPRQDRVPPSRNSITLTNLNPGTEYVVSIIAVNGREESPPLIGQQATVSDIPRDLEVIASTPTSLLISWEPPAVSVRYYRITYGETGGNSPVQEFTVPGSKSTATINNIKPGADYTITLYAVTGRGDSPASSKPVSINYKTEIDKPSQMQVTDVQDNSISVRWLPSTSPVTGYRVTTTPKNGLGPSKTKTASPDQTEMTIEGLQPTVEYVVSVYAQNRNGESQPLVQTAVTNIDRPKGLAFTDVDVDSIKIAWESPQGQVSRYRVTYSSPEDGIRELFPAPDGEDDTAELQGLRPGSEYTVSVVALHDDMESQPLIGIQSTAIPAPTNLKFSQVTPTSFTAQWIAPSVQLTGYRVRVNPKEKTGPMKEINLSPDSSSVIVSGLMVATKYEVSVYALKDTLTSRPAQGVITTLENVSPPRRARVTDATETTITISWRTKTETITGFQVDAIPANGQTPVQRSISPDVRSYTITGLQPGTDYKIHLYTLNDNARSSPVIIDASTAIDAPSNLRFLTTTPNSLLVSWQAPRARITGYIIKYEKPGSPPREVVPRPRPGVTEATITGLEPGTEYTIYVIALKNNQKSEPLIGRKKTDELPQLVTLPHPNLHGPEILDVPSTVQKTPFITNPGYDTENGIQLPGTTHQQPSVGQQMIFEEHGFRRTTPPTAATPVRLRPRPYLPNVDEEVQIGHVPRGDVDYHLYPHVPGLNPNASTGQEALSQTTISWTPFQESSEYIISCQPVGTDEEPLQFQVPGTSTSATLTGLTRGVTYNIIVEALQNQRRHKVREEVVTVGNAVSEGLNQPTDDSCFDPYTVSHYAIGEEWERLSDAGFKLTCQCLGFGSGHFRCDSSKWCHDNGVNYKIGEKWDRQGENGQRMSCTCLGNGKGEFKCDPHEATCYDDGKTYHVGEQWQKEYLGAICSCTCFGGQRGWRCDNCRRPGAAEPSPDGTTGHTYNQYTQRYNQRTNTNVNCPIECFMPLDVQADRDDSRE

time to reach >90% conversion ([1]; coupling to glutamine substrate derived from α-2 plasmin inhibitor): less than 10 minutes
conversion (coupling to glutamine substrate) ([1]; within less than 10 minutes): > 90%
Substance: PLKPAKSA (listed as Homo sapiens) [IGF-I D chain]

bioactivity of released MI in terms of myostatin inhibition (myostatin [2]): bioactive
Substance: VATQGQCTRWPWMCPPQGWG (listed as Homo sapiens) [MI, in b165 the MI released from ECM by MMPs]

bioactivity of immobilized MI by capturing myostatin (myostatin [3]; ELISA, MI immobilized on ECM): confirmed
capacity to bind and inhibit myostatin after immobilization on N-terminus of fibronectin (myostatin [3]; immobilized on ECM): without impairment
co-localization with fibronectin (fibronectin; confocal laser scanning microscopy): confirmed
efficacy of immobilization on ECM (fibronectin; decellularized ECM from NIH3T3 fibroblasts, FXIIIa): high efficacy
Substance: MI-D chain: myostatin inhibitor with the IGF-I D chain attached at the C-terminus for direct immobilization on ECM (VATQGQCTRWPWMCPPQGWGPLKPAKSA)
differentiation of mouse myoblast cells in presence of myostatin (mouse myoblast cells): restoration
